In PMC5758883, “Analysis of the natively unstructured RNA/protein-recognition core in the Escherichia coli RNA degradosome and its interactions with regulatory RNA/Hfq complexes” (Nucleic Acids Research, 2017):

T1: RNase E 603–850 with a C-terminal hexahistidine tag (Escherichia coli, UniProt P21513 603-850)
T1 construct: also called Rne; source: E. coli BL21 (DE3), co-expressed with RhlB (pRSFDuet-1) with or without enolase (pET11-a); alone: RhlB and enolase removed on the column with 8 M urea; not shown: His6, C-terminal, kept
T1 sequence (looked up): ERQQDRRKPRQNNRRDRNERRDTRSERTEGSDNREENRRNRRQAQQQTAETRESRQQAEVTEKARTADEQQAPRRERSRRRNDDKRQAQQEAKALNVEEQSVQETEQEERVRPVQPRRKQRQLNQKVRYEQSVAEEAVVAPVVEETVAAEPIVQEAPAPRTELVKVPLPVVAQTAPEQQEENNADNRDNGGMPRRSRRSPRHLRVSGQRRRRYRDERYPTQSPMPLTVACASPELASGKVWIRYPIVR

B1: enolase (enzyme, Escherichia coli)
chain: MSKIVKIIGREIIDSRGNPTVEAEVHLEGGFVGMAAAPSGASTGSREALELRDGDKSRFLGKGVTKAVAAVNGPIAQALIGKDAKDQAGIDKIMIDLDGTENKSKFGANAILAVSLANAKAAAAAKGMPLYEHIAELNGTPGKYSMPVPMMNIINGGEHADNNVDIQEFMIQPVGAKTVKEAIRMGSEVFHHLAKVLKAKGMNTAVGDEGGYAPNLGSNAEALAVIAEAVKAAGYELGKDITLAMDCAASEFYKDGKYVLAGEGNKAFTSEEFTHFLEELTKQYPIVSIEDGLDESDWDGFAYQTKVLGDKIQLVGDDLFVTNTKILKEGIEKGIANSILIKFNQIGSLTETLAAIKMAKDAGYTAVISHRSGETEDATIADLAVGTAAGQIKTGSMSRSDRVAKYNQLIRIEEALGEKAPYNGRKEIKGQA
notes: E. coli enolase; No tag is named for enolase in either construct; also called glycolytic enzyme enolase; enolase dimer; source: E. coli Rosetta (DE3), pETDuet, co-expressed and co-purified with His6-AR2–EBS
B2: DEAD-box helicase RhlB (enzyme, Escherichia coli, UniProt P0A8J8 1-421, looked up)
chain: MSKTHLTEQKFSDFALHPKVVEALEKKGFHNCTPIQALALPLTLAGRDVAGQAQTGTGKTMAFLTSTFHYLLSHPAIADRKVNQPRALIMAPTRELAVQIHADAEPLAEATGLKLGLAYGGDGYDKQLKVLESGVDILIGTTGRLIDYAKQNHINLGAIQVVVLDEADRMYDLGFIKDIRWLFRRMPPANQRLNMLFSATLSYRVRELAFEQMNNAEYIEVEPEQKTGHRIKEELFYPSNEEKMRLLQTLIEEEWPDRAIIFANTKHRCEEIWGHLAADGHRVGLLTGDVAQKKRLRILDEFTRGDLDILVATDVAARGLHIPAVTHVFNYDLPDDCEDYVHRIGRTGRAGASGHSISLACEEYALNLPAIETYIGHSIPVSKYNPDALMTDLPKPLRLTRPRTGNGPRRTGAPRNRRRSG
notes: E. coli DEAD-box helicase RhlB; HDX-MS covers both RecA-like domains and the tail 400–421, so probably the whole protein; also called RhIB

Legend:
[1] = target: the molecule itself; experiment: native MS; native ESI and ion-mobility mass spectrometry of the co-purified ternary and binary complexes
[2] = target: T1, RNase E 603–850 with a C-terminal …; experiment: SEC-MALS; co-expressed, co-purified ternary and binary complexes loaded at 5.6 and 4.0 mg/ml on Superdex 200 10/300; 50 mM Tris–HCl pH 7.5, 100 mM NaCl, 50 mM KCl, 5 mM MgCl2, 2 mM DTT; settings: both partners purified

Binder | stoichiometry N [1] | stoichiometry N [2]
B1 | 2 | 2
B2 |  | 1
